Columns and labels:
Assay in all cases: EMSA
[1] = target: T1, scMtRNAP ΔHNG (UniProt P13433 1-640+644-1351, internal_change)
T1 sequence: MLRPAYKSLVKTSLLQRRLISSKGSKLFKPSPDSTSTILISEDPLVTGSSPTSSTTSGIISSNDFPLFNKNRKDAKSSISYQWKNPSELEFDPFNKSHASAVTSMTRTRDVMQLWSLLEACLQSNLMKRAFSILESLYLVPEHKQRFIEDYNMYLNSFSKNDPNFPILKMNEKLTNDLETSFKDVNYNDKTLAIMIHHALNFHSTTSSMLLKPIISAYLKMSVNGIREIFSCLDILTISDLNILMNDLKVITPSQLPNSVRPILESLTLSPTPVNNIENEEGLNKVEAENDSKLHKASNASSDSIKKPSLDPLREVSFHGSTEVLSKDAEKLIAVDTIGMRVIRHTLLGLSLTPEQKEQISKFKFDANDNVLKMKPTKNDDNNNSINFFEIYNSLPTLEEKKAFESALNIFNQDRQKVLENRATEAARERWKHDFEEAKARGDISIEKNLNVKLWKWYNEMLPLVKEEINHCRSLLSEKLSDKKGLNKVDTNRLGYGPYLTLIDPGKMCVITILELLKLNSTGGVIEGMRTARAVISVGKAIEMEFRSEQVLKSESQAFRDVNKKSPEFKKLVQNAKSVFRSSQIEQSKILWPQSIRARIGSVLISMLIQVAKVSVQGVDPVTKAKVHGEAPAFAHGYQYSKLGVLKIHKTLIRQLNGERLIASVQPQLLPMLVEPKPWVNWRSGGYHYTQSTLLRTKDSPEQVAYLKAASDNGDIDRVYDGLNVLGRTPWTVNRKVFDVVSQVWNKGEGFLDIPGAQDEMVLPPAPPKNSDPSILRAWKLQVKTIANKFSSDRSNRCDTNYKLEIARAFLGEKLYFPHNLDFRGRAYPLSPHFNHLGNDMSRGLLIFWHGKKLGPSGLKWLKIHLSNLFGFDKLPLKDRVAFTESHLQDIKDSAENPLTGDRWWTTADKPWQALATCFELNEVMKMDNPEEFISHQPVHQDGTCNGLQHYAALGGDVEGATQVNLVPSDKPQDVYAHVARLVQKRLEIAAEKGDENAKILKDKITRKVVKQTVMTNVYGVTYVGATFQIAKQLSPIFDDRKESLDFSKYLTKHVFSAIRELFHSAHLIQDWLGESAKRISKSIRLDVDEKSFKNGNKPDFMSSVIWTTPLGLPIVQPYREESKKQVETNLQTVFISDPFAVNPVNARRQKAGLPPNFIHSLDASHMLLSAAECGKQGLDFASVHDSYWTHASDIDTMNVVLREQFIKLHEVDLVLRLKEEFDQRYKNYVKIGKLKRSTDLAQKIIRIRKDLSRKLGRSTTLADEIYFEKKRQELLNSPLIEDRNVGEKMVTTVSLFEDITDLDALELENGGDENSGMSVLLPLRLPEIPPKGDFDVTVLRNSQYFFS

[2] = target: T2, yeast mitochondrial RNA polymerase (scMtRNAP) WT (UniProt P13433 1-1351)
T2 sequence: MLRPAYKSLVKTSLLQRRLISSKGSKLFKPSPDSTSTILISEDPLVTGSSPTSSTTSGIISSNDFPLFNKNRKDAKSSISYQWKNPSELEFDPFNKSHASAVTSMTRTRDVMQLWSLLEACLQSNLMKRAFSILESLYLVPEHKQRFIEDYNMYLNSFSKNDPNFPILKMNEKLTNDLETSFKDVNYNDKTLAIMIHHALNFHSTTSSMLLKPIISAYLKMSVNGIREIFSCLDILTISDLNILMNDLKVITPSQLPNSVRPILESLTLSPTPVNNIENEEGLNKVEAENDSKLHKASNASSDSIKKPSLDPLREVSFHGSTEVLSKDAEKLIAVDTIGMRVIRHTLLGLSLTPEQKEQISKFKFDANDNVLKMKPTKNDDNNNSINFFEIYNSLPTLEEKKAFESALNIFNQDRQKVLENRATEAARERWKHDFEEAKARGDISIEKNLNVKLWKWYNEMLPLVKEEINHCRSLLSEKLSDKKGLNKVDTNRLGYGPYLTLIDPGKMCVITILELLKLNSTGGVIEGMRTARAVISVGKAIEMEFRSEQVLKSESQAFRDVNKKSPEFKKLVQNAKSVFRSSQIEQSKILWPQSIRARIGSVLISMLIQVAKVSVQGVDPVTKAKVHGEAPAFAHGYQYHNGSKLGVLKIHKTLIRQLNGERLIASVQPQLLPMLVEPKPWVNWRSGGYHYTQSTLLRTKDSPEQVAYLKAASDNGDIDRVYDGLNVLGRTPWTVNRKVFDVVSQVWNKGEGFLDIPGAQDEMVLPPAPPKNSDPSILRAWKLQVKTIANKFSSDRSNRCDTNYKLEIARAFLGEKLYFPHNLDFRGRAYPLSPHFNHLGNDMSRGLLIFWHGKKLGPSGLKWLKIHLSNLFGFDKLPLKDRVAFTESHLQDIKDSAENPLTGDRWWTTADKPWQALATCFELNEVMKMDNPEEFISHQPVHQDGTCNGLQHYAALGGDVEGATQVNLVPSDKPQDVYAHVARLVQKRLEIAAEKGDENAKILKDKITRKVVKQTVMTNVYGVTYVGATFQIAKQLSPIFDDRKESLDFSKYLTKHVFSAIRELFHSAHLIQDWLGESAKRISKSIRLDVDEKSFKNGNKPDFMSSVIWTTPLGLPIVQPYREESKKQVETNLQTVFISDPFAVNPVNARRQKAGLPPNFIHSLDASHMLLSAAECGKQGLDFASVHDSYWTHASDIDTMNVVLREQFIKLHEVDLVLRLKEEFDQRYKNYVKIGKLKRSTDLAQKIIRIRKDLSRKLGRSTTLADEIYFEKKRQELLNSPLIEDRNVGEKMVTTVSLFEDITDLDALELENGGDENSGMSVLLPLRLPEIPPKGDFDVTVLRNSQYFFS

[3] = target: yeast mitochondrial RNA polymerase (scMtRNAP) WT;MTF1 (yeast mitochondrial transcription factor) (Saccharomyces cerevisiae?;Saccharomyces …, UniProt P13433;P14908 1-1351;1-341, |)
[4] = target: scMtRNAP ΔNGS;MTF1 (yeast mitochondrial transcription factor) (Saccharomyces cerevisiae?;Saccharomyces …, UniProt P13433;P14908 1-641+645-1351;1-341, internal_change|)
Sequence of scMtRNAP ΔNGS;MTF1 (yeast mitochondrial transcription factor) (P14908 whole entry, stated change not applied, one chain of several): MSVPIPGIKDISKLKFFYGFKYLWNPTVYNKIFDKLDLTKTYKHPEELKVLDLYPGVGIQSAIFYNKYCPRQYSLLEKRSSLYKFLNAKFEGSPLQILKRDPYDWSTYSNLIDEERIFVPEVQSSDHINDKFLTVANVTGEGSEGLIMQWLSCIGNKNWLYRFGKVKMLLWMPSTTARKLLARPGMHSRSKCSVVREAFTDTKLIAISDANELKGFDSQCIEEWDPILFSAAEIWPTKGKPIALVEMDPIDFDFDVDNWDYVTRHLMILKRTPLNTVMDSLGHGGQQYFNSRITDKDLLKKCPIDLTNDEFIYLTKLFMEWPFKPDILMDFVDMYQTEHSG

[5] = target: scMtRNAP ΔHNG;MTF1 (yeast mitochondrial transcription factor) (Saccharomyces cerevisiae?;Saccharomyces …, UniProt P13433;P14908 1-640+644-1351;1-341, internal_change|)

B1: 33 bp Bubble (pre-melted) promoter (dsDNA)
DNA 1: CGCGTAAAACTATTCTTTATTACTTATATCGCG
DNA 2: CGCGATATGCAGCTTAAAGAATAGTTTTACGCG
- Kd [1]: 5300 nM
- Kd [2]: 4300 nM
- Kd [3]: 160 nM
- Kd [4]: 430 nM
- Kd [5]: 340 nM

From PMC3361065 (Biochemistry, 2012)
